Measured values: paper PMC6469509

What was measured:
NLRX1 FL recombinant [1] = target: T1, NLRX1 FL recombinant (human, UniProt Q86UT6 1-975); test: pull-down
NLRC3 FL recombinant [2] = target: T2, NLRC3 FL recombinant (human, UniProt Q7RTR2 1-1065); test: pull-down
T2 sequence: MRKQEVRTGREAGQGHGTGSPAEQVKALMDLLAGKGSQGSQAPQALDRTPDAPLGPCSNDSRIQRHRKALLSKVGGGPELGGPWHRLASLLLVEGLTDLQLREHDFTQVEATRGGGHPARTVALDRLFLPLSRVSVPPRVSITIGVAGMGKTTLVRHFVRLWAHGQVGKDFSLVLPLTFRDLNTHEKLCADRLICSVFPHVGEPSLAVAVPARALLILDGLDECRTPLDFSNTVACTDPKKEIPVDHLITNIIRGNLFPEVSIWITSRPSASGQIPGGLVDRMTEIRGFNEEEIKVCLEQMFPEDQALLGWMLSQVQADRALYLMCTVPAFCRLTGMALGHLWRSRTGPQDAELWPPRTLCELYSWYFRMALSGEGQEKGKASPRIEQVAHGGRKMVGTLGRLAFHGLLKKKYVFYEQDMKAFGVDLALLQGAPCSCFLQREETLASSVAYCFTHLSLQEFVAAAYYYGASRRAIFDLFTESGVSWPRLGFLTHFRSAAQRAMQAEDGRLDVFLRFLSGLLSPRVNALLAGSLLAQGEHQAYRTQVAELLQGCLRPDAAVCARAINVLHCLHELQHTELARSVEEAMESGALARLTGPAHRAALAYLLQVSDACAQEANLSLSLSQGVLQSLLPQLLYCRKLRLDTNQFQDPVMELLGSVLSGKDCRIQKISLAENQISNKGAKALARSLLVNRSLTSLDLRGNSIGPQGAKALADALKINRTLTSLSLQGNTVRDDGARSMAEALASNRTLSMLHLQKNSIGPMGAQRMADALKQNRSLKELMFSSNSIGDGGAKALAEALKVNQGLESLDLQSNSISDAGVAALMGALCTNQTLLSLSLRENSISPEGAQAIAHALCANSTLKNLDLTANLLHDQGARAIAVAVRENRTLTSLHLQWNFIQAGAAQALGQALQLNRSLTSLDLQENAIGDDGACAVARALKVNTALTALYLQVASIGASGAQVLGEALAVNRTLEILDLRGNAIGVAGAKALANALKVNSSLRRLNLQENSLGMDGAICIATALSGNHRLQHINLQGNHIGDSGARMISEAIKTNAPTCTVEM

STING 155-341 [3] = target: T3, STING 155-341 (human, UniProt Q86WV6 155-341); test: SPR
T3 sequence (Q86WV6 155-341): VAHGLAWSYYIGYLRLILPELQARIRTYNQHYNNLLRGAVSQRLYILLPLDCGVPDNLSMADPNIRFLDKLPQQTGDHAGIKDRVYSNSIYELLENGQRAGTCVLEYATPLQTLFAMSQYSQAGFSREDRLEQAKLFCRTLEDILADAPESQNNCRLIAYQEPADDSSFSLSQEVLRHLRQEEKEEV

NLRC3 FL recombinant [4] = target: T2, NLRC3 FL recombinant; test: SPR
NLRC3 NBD recombinant = target: T4, NLRC3 NBD recombinant (human, UniProt Q7RTR2 139-460); test: pull-down
T4 sequence: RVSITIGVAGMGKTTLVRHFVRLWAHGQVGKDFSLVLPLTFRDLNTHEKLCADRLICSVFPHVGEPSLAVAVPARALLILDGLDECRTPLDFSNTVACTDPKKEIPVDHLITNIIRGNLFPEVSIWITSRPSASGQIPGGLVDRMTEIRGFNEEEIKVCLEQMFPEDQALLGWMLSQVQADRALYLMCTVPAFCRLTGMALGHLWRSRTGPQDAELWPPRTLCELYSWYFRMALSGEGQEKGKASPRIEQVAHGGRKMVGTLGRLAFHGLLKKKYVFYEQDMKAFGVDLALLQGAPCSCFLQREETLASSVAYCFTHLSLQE

cGAS FL recombinant = cGAS FL recombinant (mouse, UniProt Q8C6L5 1-507); test: EMSA
cGAS FL recombinant, sequence (Q8C6L5 whole entry): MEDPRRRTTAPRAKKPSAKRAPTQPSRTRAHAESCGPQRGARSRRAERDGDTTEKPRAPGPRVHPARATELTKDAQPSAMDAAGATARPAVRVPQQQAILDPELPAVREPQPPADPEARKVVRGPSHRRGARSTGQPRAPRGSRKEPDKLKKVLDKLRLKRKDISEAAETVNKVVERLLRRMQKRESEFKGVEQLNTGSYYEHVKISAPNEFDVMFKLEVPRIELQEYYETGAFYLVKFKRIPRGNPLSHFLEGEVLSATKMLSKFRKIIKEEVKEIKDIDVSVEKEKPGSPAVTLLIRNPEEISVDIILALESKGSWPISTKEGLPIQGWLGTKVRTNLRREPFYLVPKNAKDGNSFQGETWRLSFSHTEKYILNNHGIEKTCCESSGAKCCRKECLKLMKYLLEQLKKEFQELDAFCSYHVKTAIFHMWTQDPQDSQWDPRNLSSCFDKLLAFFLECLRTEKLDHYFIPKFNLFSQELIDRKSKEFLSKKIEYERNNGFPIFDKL

NLRX1 FL recombinant [5] = target: T1, NLRX1 FL recombinant; test: EMSA
STING 155-341 [6] = target: T3, STING 155-341; test: gel filtration
NLRX1 FL recombinant [7] = target: T1, NLRX1 FL recombinant; test: SPR

T1 sequence (Q86UT6 whole entry): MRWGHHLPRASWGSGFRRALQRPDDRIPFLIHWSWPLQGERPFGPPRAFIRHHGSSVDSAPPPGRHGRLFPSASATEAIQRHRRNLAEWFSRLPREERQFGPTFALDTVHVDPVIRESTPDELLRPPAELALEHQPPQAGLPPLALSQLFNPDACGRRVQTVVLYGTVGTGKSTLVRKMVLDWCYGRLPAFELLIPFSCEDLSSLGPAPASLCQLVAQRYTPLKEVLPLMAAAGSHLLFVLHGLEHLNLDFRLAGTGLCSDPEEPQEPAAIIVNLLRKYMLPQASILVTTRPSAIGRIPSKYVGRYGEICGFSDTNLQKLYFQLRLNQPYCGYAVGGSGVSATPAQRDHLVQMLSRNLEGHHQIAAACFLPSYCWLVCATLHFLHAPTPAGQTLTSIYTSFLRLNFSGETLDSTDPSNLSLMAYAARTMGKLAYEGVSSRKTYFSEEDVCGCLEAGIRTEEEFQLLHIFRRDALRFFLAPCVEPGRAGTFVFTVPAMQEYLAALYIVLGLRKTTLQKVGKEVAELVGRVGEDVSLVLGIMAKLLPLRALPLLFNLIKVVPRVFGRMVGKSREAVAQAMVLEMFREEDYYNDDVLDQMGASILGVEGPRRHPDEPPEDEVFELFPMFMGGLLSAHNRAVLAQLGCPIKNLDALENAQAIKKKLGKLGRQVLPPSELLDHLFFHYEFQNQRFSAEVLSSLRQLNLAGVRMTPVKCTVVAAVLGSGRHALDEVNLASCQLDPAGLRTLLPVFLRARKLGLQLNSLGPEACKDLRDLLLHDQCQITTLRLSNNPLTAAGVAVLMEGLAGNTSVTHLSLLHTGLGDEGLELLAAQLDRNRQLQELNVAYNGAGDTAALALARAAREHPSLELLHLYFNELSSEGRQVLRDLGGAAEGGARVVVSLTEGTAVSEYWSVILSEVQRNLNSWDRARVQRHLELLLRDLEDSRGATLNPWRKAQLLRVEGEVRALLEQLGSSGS

B1: HSV-15 dsDNA (dsDNA)
DNA 1: TAAGACACGATGCGA
DNA 2: TCGCATCGTGTCTTA
B1: no binding (NLRX1 FL recombinant [1]); binds (NLRC3 FL recombinant [2]).

B2: HSV-60 dsDNA (dsDNA)
DNA 1: TAAGACACGATGCGATAAAATCTGTTTGTAAAATTTATTAAGGGTACAAATTGCCCTAGC
DNA 2: GCTAGGGCAATTTGTACCCTTAATAAATTTTACAAACAGATTTTATCGCATCGTGTCTTA
For B2, the binding result (STING 155-341 [3]) was “no binding”, the Kd (NLRC3 FL recombinant [4]) was 3 nM and the binding result (NLRC3 NBD recombinant) was “no binding”. B2: binds (cGAS FL recombinant); no binding (NLRX1 FL recombinant [5]).

B3: HSV-60 dsDNA unlabelled (dsDNA)
DNA 1: TAAGACACGATGCGATAAAATCTGTTTGTAAAATTTATTAAGGGTACAAATTGCCCTAGC
DNA 2: GCTAGGGCAATTTGTACCCTTAATAAATTTTACAAACAGATTTTATCGCATCGTGTCTTA
B3: no binding (STING 155-341 [6]).

B4: HSV-60 DNA-RNA hybrid (DNA:RNA)
DNA: TAAGACACGATGCGATAAAATCTGTTTGTAAAATTTATTAAGGGTACAAATTGCCCTAGC
RNA: GCUAGGGCAAUUUGUACCCUUAAUAAAUUUUACAAACAGAUUUUAUCGCAUCGUGUCUUA
B4: binds (NLRC3 FL recombinant [4]).

B5: HSV-60 ssDNA (ssDNA)
DNA: TAAGACACGATGCGATAAAATCTGTTTGTAAAATTTATTAAGGGTACAAATTGCCCTAGC
B5: binds (NLRC3 FL recombinant [4]).

B6: HSV-60 dsRNA (dsRNA)
RNA 1: UAAGACACGAUGCGAUAAAAUCUGUUUGUAAAAUUUAUUAAGGGUACAAAUUGCCCUAGC
RNA 2: GCUAGGGCAAUUUGUACCCUUAAUAAAUUUUACAAACAGAUUUUAUCGCAUCGUGUCUUA
B6: binds (NLRX1 FL recombinant [7]).
